Paper PMC10135305

Molecular target: C-terminal domain of catalase-3 (CAT-3) of Neurospora crassa (TDC3) (Neurospora crassa) (UniProt Q9C169)
Assay: SEC; Superdex 75 HR 10/300 on FPLC; TDC3 1 mg/mL injected, 0.75 mL/min; mass from gel filtration standards

- stoichiometry N: 2
Substance: C-terminal domain of catalase-3 (CAT-3) of Neurospora crassa (TDC3) (from UniProt Q9C169 568-719) (domain or fragment)
